{"source": "patent US10344077", "binders": {"B1": {"name": "CH239_4A/293i (antibody, from a related filing, V domains shown)", "VH": "QVQLVQSGAEVRKPGASVTVSCKASGYTFNNFYVHWVRQAPGQGLECMGWIDPSVGRINYAQKFQGRVTMTRDRSTSTVYMGLSSLRSEDTAIYYCVRDVGTEGSLLHFDHWGQGTLVIVSA", "VL": "EIVLTQSPATLSVSPGERATLSCRATQSVRSNVAWYQQKPGQAPRLLIYSASTRATGIPARFSGSGSGTEFTLTIASMQSEDFAVYYCLQYDDWWTFGQGTKVEIK"}, "B2": {"name": "CH235_4A (antibody, from a related filing, V domains shown)", "VH": "QVQLVQSGAEVKKPGASVTVSCQASGYTFTNYYVHWVRQAPGQGLQLMGWIDPSWGRTNYAQNFQGRITMTRDTSTSTVYMEMRSLRSEDTAVYYCARNVATEGSLLHYDYWGQGTLVTVSA", "VL": "EIVLTQSPATLSVSPGERATLSCRASQSVRSNLAWYQQRPGQAPRLLIYGTSTRATGVPARFSGRGSGTEFTLAISSMQSEDFAVYLCLQYNNWWTFGQGTKVEIK"}, "B3": {"name": "CH240_4A/293i (antibody, from a related filing, V domains shown)", "VH": "B1 VH with A9T, V20I, N59S, A61G, I93M", "VL": "B1 VL with V33L, P40R, A76S, M78V, D92N, D93N"}, "B4": {"name": "CH241 (antibody, from a related filing, V domains shown)", "VH": "QVQLVQSGAAVKKPGASVRVSCKASGYTFTSSHIHWVRQAPGQGPEWMGMIDPSVGRPTTAGKFQGRVTMTRDRYTSTAYMDLSSLRSEDTAVYYCARSVETTGSLLYFDYWGQGTLITVSS", "VL": "EIVLTQSPATLSVSPGERATLSCRASQSVRSNIAWYQQKPGQAPRLLIHGASTRATGIPGRFSGSGSGPEFTLAISSVQSEDFAVYYCQQYNDWWTFGQGTKVEIK"}}, "note": "Positions count from the first letter of the chain named."}
{"substrate": "T1, SSB (UniProt P05455)", "T1 sequence (looked up)": "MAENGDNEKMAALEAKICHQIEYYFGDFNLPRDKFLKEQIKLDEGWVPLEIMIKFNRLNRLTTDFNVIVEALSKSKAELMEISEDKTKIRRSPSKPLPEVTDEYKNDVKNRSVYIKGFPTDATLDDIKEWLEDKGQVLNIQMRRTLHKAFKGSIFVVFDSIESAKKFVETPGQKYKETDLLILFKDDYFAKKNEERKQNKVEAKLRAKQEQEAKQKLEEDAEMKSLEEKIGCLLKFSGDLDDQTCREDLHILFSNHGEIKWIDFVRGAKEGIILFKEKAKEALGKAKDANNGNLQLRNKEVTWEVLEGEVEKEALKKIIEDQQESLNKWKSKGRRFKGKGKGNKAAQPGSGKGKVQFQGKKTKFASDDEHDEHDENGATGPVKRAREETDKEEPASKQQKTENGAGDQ", "assay": "AtheNA, Ab 12.5 ug/ml"}
{"binder": "B1", "Athena reading (relative luminescence units)": 6}
{"binder": "B2", "Athena reading (relative luminescence units)": 5}
{"binder": "B3", "Athena reading (relative luminescence units)": 5}
{"binder": "B4", "Athena reading (relative luminescence units)": 8}
{"biological_target": "Scl-70 (UniProt P11387)", "sequence (P11387 2-765 limits assumed)": "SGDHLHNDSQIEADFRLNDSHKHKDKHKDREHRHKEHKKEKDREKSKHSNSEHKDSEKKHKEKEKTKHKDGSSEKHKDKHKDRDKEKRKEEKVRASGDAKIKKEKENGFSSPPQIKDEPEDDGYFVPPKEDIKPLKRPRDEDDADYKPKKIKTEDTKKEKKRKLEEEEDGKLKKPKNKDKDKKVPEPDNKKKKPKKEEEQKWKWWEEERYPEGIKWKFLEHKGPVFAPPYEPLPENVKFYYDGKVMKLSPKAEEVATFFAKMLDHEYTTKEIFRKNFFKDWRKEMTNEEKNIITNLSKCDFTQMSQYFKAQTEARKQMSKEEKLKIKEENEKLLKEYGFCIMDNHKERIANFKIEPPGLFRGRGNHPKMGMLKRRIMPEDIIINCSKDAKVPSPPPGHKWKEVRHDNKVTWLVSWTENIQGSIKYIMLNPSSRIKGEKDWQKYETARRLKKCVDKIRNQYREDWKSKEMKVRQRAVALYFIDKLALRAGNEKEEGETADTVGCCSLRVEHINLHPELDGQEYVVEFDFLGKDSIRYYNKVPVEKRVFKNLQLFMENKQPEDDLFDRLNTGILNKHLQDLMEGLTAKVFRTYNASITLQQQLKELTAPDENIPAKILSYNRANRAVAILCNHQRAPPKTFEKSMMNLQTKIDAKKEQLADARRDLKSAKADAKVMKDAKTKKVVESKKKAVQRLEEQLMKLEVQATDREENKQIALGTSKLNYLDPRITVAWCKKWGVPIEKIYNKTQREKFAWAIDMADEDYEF", "assay": "AtheNA, Ab 6.25 ug/ml"}
{"binder": "B1", "Athena reading (relative luminescence units)": 49}
{"binder": "B2", "Athena reading (relative luminescence units)": 2}
{"binder": "B3", "Athena reading (relative luminescence units)": 3}
{"binder": "B4", "Athena reading (relative luminescence units)": 1}
{"biological_target": "T2, Centromere B (UniProt P07199)", "T2 sequence (looked up)": "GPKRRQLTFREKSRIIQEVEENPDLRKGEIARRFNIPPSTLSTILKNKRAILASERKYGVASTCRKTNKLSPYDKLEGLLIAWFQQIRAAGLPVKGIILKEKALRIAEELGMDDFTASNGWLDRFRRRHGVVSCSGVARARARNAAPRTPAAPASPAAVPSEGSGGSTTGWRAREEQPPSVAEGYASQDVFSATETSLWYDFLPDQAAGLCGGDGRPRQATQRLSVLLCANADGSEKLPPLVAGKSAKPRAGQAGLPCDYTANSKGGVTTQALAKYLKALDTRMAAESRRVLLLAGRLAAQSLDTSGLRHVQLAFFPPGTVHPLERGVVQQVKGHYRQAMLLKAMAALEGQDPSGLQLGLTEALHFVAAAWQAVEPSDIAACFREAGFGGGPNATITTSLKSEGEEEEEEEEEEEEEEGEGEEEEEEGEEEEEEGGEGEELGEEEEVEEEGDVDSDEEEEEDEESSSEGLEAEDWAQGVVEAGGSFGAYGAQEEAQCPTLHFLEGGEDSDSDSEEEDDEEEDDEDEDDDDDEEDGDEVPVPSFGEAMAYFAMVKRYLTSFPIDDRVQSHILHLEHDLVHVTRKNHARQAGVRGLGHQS", "assay": "AtheNA, Ab 6.25 ug/ml"}
{"binder": "B1", "Athena reading (relative luminescence units)": 260}
{"binder": "B2", "Athena reading (relative luminescence units)": 3}
{"binder": "B3", "Athena reading (relative luminescence units)": 8}
{"binder": "B4", "Athena reading (relative luminescence units)": 6}
{"biological_target": "SSA", "assay": "AtheNA, Ab 6.25 ug/ml"}
{"binder": "B1", "Athena reading (relative luminescence units)": 178}
{"binder": "B2", "Athena reading (relative luminescence units)": 12}
{"binder": "B3", "Athena reading (relative luminescence units)": 12}
{"binder": "B4", "Athena reading (relative luminescence units)": 15}
{"biological_target": "RNP (ribonucleoprotein)", "assay": "AtheNA, Ab 6.25 ug/ml"}
{"binder": "B1", "Athena reading (relative luminescence units)": 78}
{"binder": "B2", "Athena reading (relative luminescence units)": 3}
{"binder": "B3", "Athena reading (relative luminescence units)": 6}
{"binder": "B4", "Athena reading (relative luminescence units)": 3}
{"biological_target": "T3, Jo-1 (UniProt P12081)", "T3 sequence (looked up)": "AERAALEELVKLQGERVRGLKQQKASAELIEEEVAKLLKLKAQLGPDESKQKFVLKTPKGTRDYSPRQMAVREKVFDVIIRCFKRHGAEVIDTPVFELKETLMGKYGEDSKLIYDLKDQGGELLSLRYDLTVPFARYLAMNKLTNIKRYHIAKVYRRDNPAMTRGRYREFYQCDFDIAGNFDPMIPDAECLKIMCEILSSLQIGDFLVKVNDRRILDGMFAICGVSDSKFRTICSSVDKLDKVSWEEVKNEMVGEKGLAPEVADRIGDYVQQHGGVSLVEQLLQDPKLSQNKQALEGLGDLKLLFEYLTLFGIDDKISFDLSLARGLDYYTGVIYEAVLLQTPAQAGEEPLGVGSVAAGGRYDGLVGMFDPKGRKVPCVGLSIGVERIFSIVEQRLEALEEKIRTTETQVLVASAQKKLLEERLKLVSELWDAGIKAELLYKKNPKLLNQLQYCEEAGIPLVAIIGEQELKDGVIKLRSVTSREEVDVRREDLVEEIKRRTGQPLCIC", "assay": "AtheNA, Ab 6.25 ug/ml"}
{"binder": "B1", "Athena reading (relative luminescence units)": 8}
{"binder": "B2", "Athena reading (relative luminescence units)": 2}
{"binder": "B3", "Athena reading (relative luminescence units)": 5}
{"binder": "B4", "Athena reading (relative luminescence units)": 2}
{"biological_target": "Histones", "assay": "AtheNA, Ab 6.25 ug/ml"}
{"binder": "B1", "Athena reading (relative luminescence units)": 266}
{"binder": "B2", "Athena reading (relative luminescence units)": 5}
{"binder": "B3", "Athena reading (relative luminescence units)": 9}
{"binder": "B4", "Athena reading (relative luminescence units)": 9}
{"biological_target": "Sm (Smith antigen)", "assay": "AtheNA, Ab 6.25 ug/ml"}
{"binder": "B1", "Athena reading (relative luminescence units)": 285}
{"binder": "B2", "Athena reading (relative luminescence units)": 5}
{"binder": "B3", "Athena reading (relative luminescence units)": 9}
{"binder": "B4", "Athena reading (relative luminescence units)": 4}
{"substrate": "T1, ", "assay": "AtheNA, Ab 25 ug/ml"}
{"binder": "B1", "Athena reading (relative luminescence units)": 8}
{"binder": "B2", "Athena reading (relative luminescence units)": 5}
{"binder": "B3", "Athena reading (relative luminescence units)": 11}
{"binder": "B4", "Athena reading (relative luminescence units)": 6}
{"biological_target": "T2, Centromere B", "assay": "AtheNA, Ab 50 ug/ml"}
{"binder": "B1", "Athena reading (relative luminescence units)": 173}
{"biological_target": "SSA", "assay": "AtheNA, Ab 50 ug/ml"}
{"binder": "B1", "Athena reading (relative luminescence units)": 289}
{"biological_target": "Histones", "assay": "AtheNA, Ab 50 ug/ml"}
{"binder": "B1", "Athena reading (relative luminescence units)": 228}
{"biological_target": "Sm (Smith antigen)", "assay": "AtheNA, Ab 50 ug/ml"}
{"binder": "B1", "Athena reading (relative luminescence units)": 250}
{"biological_target": "Scl-70 (UniProt P11387)", "assay": "AtheNA, Ab 25 ug/ml"}
{"binder": "B2", "Athena reading (relative luminescence units)": 4}
{"binder": "B3", "Athena reading (relative luminescence units)": 6}
{"binder": "B4", "Athena reading (relative luminescence units)": 4}
{"biological_target": "T2, Centromere B", "assay": "AtheNA, Ab 25 ug/ml"}
{"binder": "B1", "Athena reading (relative luminescence units)": 199}
{"binder": "B2", "Athena reading (relative luminescence units)": 6}
{"binder": "B3", "Athena reading (relative luminescence units)": 24}
{"binder": "B4", "Athena reading (relative luminescence units)": 14}
{"biological_target": "SSA", "assay": "AtheNA, Ab 25 ug/ml"}
{"binder": "B1", "Athena reading (relative luminescence units)": 306}
{"binder": "B2", "Athena reading (relative luminescence units)": 13}
{"binder": "B3", "Athena reading (relative luminescence units)": 16}
{"binder": "B4", "Athena reading (relative luminescence units)": 15}
{"biological_target": "RNP (ribonucleoprotein)", "assay": "AtheNA, Ab 25 ug/ml"}
{"binder": "B1", "Athena reading (relative luminescence units)": 96}
{"binder": "B2", "Athena reading (relative luminescence units)": 5}
{"binder": "B3", "Athena reading (relative luminescence units)": 11}
{"binder": "B4", "Athena reading (relative luminescence units)": 6}
{"biological_target": "T3, Jo-1", "assay": "AtheNA, Ab 25 ug/ml"}
{"binder": "B1", "Athena reading (relative luminescence units)": 11}
{"binder": "B2", "Athena reading (relative luminescence units)": 4}
{"binder": "B3", "Athena reading (relative luminescence units)": 11}
{"binder": "B4", "Athena reading (relative luminescence units)": 5}
{"biological_target": "Histones", "assay": "AtheNA, Ab 25 ug/ml"}
{"binder": "B1", "Athena reading (relative luminescence units)": 253}
{"binder": "B2", "Athena reading (relative luminescence units)": 7}
{"binder": "B3", "Athena reading (relative luminescence units)": 27}
{"binder": "B4", "Athena reading (relative luminescence units)": 20}
{"biological_target": "Sm (Smith antigen)", "assay": "AtheNA, Ab 25 ug/ml"}
{"binder": "B1", "Athena reading (relative luminescence units)": 237}
{"binder": "B2", "Athena reading (relative luminescence units)": 7}
{"binder": "B3", "Athena reading (relative luminescence units)": 22}
{"binder": "B4", "Athena reading (relative luminescence units)": 11}
{"biological_target": "Scl-70 (UniProt P11387)", "assay": "AtheNA, Ab 12.5 ug/ml"}
{"binder": "B1", "Athena reading (relative luminescence units)": 48}
{"binder": "B2", "Athena reading (relative luminescence units)": 2}
{"binder": "B3", "Athena reading (relative luminescence units)": 4}
{"binder": "B4", "Athena reading (relative luminescence units)": 3}
{"biological_target": "T2, Centromere B", "assay": "AtheNA, Ab 12.5 ug/ml"}
{"binder": "B1", "Athena reading (relative luminescence units)": 216}
{"binder": "B2", "Athena reading (relative luminescence units)": 5}
{"binder": "B3", "Athena reading (relative luminescence units)": 15}
{"binder": "B4", "Athena reading (relative luminescence units)": 8}
{"biological_target": "SSA", "assay": "AtheNA, Ab 12.5 ug/ml"}
{"binder": "B1", "Athena reading (relative luminescence units)": 277}
{"binder": "B2", "Athena reading (relative luminescence units)": 13}
{"binder": "B3", "Athena reading (relative luminescence units)": 14}
{"binder": "B4", "Athena reading (relative luminescence units)": 14}
{"biological_target": "RNP (ribonucleoprotein)", "assay": "AtheNA, Ab 12.5 ug/ml"}
{"binder": "B1", "Athena reading (relative luminescence units)": 85}
{"binder": "B2", "Athena reading (relative luminescence units)": 6}
{"binder": "B3", "Athena reading (relative luminescence units)": 8}
{"binder": "B4", "Athena reading (relative luminescence units)": 5}
{"biological_target": "T3, Jo-1", "assay": "AtheNA, Ab 12.5 ug/ml"}
{"binder": "B1", "Athena reading (relative luminescence units)": 8}
{"binder": "B2", "Athena reading (relative luminescence units)": 3}
{"binder": "B3", "Athena reading (relative luminescence units)": 7}
{"binder": "B4", "Athena reading (relative luminescence units)": 6}
{"biological_target": "Histones", "assay": "AtheNA, Ab 12.5 ug/ml"}
{"binder": "B1", "Athena reading (relative luminescence units)": 263}
{"binder": "B2", "Athena reading (relative luminescence units)": 5}
{"binder": "B3", "Athena reading (relative luminescence units)": 18}
{"binder": "B4", "Athena reading (relative luminescence units)": 13}
{"biological_target": "Sm (Smith antigen)", "assay": "AtheNA, Ab 12.5 ug/ml"}
{"binder": "B1", "Athena reading (relative luminescence units)": 277}
{"binder": "B2", "Athena reading (relative luminescence units)": 8}
{"binder": "B3", "Athena reading (relative luminescence units)": 13}
{"binder": "B4", "Athena reading (relative luminescence units)": 7}
{"substrate": "T1, ", "assay": "AtheNA, Ab 6.25 ug/ml"}
{"binder": "B1", "Athena reading (relative luminescence units)": 5}
{"binder": "B2", "Athena reading (relative luminescence units)": 6}
{"binder": "B3", "Athena reading (relative luminescence units)": 5}
{"binder": "B4", "Athena reading (relative luminescence units)": 4}
